B1: wild-type URO-D module of single-chain URO-D (enzyme, human)
chain: MEANGLGPQGFPELKNDTFLRAAWGEETDYTPVWCMRQAGRYLPEFRETRAAQDFFSTCRSPEACCELTLQPLRRFPLDAAIIFSDILVVPQALGMEVTMVPGKGPSFPEPLREEQDLERLRDPEVVASELGYVFQAITLTRQRLAGRVPLIGFAGAPWTLMTYMVEGGGSSTMAQAKRWLYQRPQASHQLLRILTDALVPYLVGQVVAGAQALQLFESHAGHLGPQLFNKFALPYIRDVAKQVKARLREAGLAPVPMIIFAKDGHFALEELAQAGYEVVGLDWTVAPKKARECVGKTVTLQGNLDPCALYASEEEIGQLVKQMLDDFGPHRYIANLGHGLYPDMDPEHVGAFVDAVHKHSRLLRQN
B3: F217Y URO-D module of single-chain URO-D (enzyme, human)
chain: MEANGLGPQGFPELKNDTFLRAAWGEETDYTPVWCMRQAGRYLPEFRETRAAQDFFSTCRSPEACCELTLQPLRRFPLDAAIIFSDILVVPQALGMEVTMVPGKGPSFPEPLREEQDLERLRDPEVVASELGYVFQAITLTRQRLAGRVPLIGFAGAPWTLMTYMVEGGGSSTMAQAKRWLYQRPQASHQLLRILTDALVPYLVGQVVAGAQALQLYESHAGHLGPQLFNKFALPYIRDVAKQVKARLREAGLAPVPMIIFAKDGHFALEELAQAGYEVVGLDWTVAPKKARECVGKTVTLQGNLDPCALYASEEEIGQLVKQMLDDFGPHRYIANLGHGLYPDMDPEHVGAFVDAVHKHSRLLRQN

Test [1] deals with B3. Kind of test: crystal structure.
The target in test [2] is B1. Kind of test: crystal structure.

Turning to B1, the binding result in test [1] is reported as “binds”.

B2: Y164G URO-D module of single-chain URO-D (enzyme, human)
chain: MEANGLGPQGFPELKNDTFLRAAWGEETDYTPVWCMRQAGRYLPEFRETRAAQDFFSTCRSPEACCELTLQPLRRFPLDAAIIFSDILVVPQALGMEVTMVPGKGPSFPEPLREEQDLERLRDPEVVASELGYVFQAITLTRQRLAGRVPLIGFAGAPWTLMTGMVEGGGSSTMAQAKRWLYQRPQASHQLLRILTDALVPYLVGQVVAGAQALQLFESHAGHLGPQLFNKFALPYIRDVAKQVKARLREAGLAPVPMIIFAKDGHFALEELAQAGYEVVGLDWTVAPKKARECVGKTVTLQGNLDPCALYASEEEIGQLVKQMLDDFGPHRYIANLGHGLYPDMDPEHVGAFVDAVHKHSRLLRQN
With B2, the binding result in test [2] is recorded as “binds”. Still for that read-out and setting: as for B3, the entry is “binds”.
